Key:
[1] = biological target: T1, SARS-CoV-2 바이러스 표면 단백질 (RBD) (SARS-CoV-2, UniProt P0DTC2 319-541); assay: BLI (Octet), full IgG against RBD
[2] = biological target: T1, SARS-CoV-2 바이러스 표면 단백질 (RBD); assay: BLI (Octet), full IgG against RBD; printed as kdis
[3] = biological target: T1, SARS-CoV-2 바이러스 표면 단백질 (RBD); assay: BLI (Octet), full IgG against SARS-CoV-2 RBD

B1: No. 32 항체 (Full IgG) (antibody, V domains shown)
VH: EVQLVQSGGGLIQPGGSLRLSCAASEFIVSSNYMTWVRQAPGKGLEWVSIIYPGGSTYYADSVKGRFTISRDNSKNTLYLRMNSLRAEDTAVYYCARDLPLTGTTLDYWGQGTLVTVSS
VL: not shown
Kd [1]: 305 pM
kon [1]: 633000 M⁻¹ s⁻¹
koff [2]: 0.000193 s⁻¹
Kd [3]: 147 pM

From patent KR20220013311A (dated 2022)
